Laboratory results reported in patent US20050069542A1 (Human Genome Sciences, published 2005).

T1: flag-tagged soluble TL3 (amino acids 105-251 of SEQ ID NO:234) (Homo sapiens (Human), UniProt O75888 105-250)
T1 construct: Heterologous flag-tagged control protein, immobilized in the ELISA; also called flagged tagged TL-3; not shown: Flag tag
T1 sequence: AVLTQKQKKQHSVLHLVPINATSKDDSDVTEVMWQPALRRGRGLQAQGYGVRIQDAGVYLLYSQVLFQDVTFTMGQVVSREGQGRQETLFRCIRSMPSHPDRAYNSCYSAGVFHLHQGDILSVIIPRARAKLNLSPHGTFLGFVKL


The binders below were run against T1, flag-tagged soluble TL3 (amino acids …) (assay: phage ELISA on immobilized flag-tagged soluble TL3).
Experimental: The individual phage isolates in the panel of phage, each phage expressing a unique scFv that bound to flag-tagged GMAD, were tested to ensure specificity for GMAD using an ELISA assay. The scFvs were tested in an ELISA for their ability to bind a heterologous flag-tagged protein, in this case—immobilized soluble TL3 (amino acids 105-251 of SEQ ID NO:234, GenBank Accesion Number NP_{—}003799, also described in International Patent Application Publication Number WO97/33902 and WO2001/96528 which are herein incorporated by reference in their entireties).

binding result | Binder
no binding | GMBC692 (scFv) scFv: EVQLVQSGGGLVKPGGSLRLSCAASGFTFSDAWMNWVRQAPGKGLEWVGRIKSKGSGGTIDYAAPVKDRFTISRDDSKNTLYLQMNSLKTEDTALYYCTWDWDFYYGMNVWGRGTLVTVSSGGGGSGGGGSGGGGSQSVLTQPASVSGSPGQSITISCTGTSSDVGGYNYVSWYQQHPGKAPKLMIYEGSKRPSGVSNRFSGSKSGNTASLTISGLQAEDEADYYCSSYTTRSTRVFGGGTKLTVLG
no binding | GMBC649 (scFv) scFv: QVQLVQSGGGLVKPGGSLRLSCAASGFTFSDAWMNWVRQAPGKGLEWVGRIKSKGSGGTIDYAAPVKDRFTISRDDSKNTLYLQMNSLKTEDTALYYCTWDWDFYYGMNVWGRGTLVTVSSGGGGSGGGGSGGGGSQSVLTQPASVSGSPGQSITISCTGTSSDVGGYNYVSWYQQHPGKAPKLMIYEGSKRPSGVSNRFSGSKSGNTASLTISGLQAEDEADYYCSSYTTRSTRVFGGGTKLTVLG
no binding | GMBC615 (scFv) scFv: EVQLVESGGGLVKPGGSLRLSCAASGFKFSDAWMNWVRQAPGKGLEWVGRIKSKGSGGTIDYAAPVKDRFTISRDDSKNTLYLQMNSLKTEDTALYYCTWDWDFYYGMNVWGKGTLVAVSSGGGGSGGGGSGGGGSQSVLTQPASVSGSPGQSITISCTGTSSDVGGYNYVSWYQQHPGKAPKLMIYEGSKRPSGVSNRFSGSKSGNTASLTISGLQAEDEADYYCSSYTTRSTRVFGGGTKLTVLG
no binding | GMBC664 (scFv) scFv: EVQLVETGGALVKPGGSLRLSCAASGFTFSDAWMNWVRQAPGKGLEWVGRIKSKGSGGTIDYAAPVKDRFTISRDDSKNTLYLQMNSLKTEDTALYYCTWDWDFYYGMNVWSRGTMVTVSSGGGGSGGGGSGGGGSQSVLTQPASVSGSPGQSITISCTGTSSDVGGYNYVSWYQQHPGKAPKLMIYEGSKRPSGVSNRFSGSKSGNTASLTISGLQAEDEADYYCSSYTTRSTRVFGGGTKLTVLG
no binding | GMBC614 (scFv) scFv: EVQLVQSGGGLVKPGGSLRLSCAASGFTFSDAWMNWVRQAPGKGLEWVGRIKSKGSGGTIDYAAPVKDRFTISRDDSKNTLYLQMNSLKTEDTALYYCTWDWDFYYGMNVWGRGTMVTVSSGGGGSGGGGSGGGGSQSVLTQPASVSGSPGQSITISCTGTSSDVGGYNYVSWYQQHPGKAPKLMIYEGSKRPSGVSNRFSGSKSGNTASLTISGLQAEDEADYYCSSYTTRSTRVFGGGTKLTVLG
no binding | GMBC620 (scFv) scFv: EVQLVESGGGLVKPGGSLRLSCAASGFTFSDAWMNWVRQAPGKGLEWVGRIKSKGSGGTIDYAAPVKDRFTISRDDSKNTLYLQMNSLKTEDTALYYCTWDWDFYYGMNVWGRGTMVTVSSGGGGSGGGGSGGGGSQSVLTQPASVSGSPGQSITISCTGTSSDVGGYNYVSWYQQHPGKAPKLMIYEGSKRPSGVSNRFSGSKSGNTASLTISGLQAEDEADYYCSSYTTRSTRVFGGGTKLTVLG
no binding | GMBC645 (scFv) scFv: EVQLVESGGGLVKPGGSLRLSCAGSGFKFSDAWMNWVRQAPGKGLEWVGRIKSKGSGGTIEYAAPVKDRFIISRDDSKDTLYLQMNSLKTEDTALYYCTWDWDFYYGMNVWGRGTLVTVSSGGGGSGGGGSGGGGSQSVLTQPASVSGSPGQSITISCTGTSSDVGGYNYVSWYQQHPGKAPKLMIYEGSKRPSGVSNRFSGSKSGNTASLTISGLQAEDEADYYCSSYTTRSTRVFGGGTELTVLG
no binding | GMBC651 (scFv) scFv: EVQLVESGGGLVQPGGSLRLSCAASGFTFSDAWMNWVRQAPGKGLEWVGRIKSKGSGGTIDYAAPVKDRFTISRDDSKNTLYLQMNSLKTEDTALYYCTWDWDFYYGMNVWGRGTMVTVSSGGGGSGGGGSGGGGSQSVLTQPASVSGSPGQSITISCTGTSSDVGGYNYVSWYQQHPGKAPKLMIYEGSKRPSGVSNRFSGSKSGNTASLTISGLQAEDEADYYCSSYTTRSTRVFGGGTKLTVLG
no binding | GMBC654 (scFv) scFv: EVQLVETGGGLVEPGGSLRLSCAASGFTFSDAWMNWVRQAPGKGLEWVGRIKSKRSGGTIDYAAPVKDRFTISRDDSKNTLYLQMNSLKIEDTALYYCTWDWDFYYGMNVWGKGTTVTVSSGGGGSGGGGSGGGGSQSVLTQPASVSGSPGQSITISCTGTSSDVGGYNYVSWYQQHPGKAPKLMIYEGSKRPSGVSNRFSGSKSGNTASLTISGLQAEDEADYYCSSYTTRSTRVFGGGTKLTVLG
no binding | GMBC647 (scFv) scFv: EVQLVESGGGLVKPGGSLRLSCAASGFTFSDAWMNWVRQAPGKGLEWVGRIKSKGSGGTIDYAAPVKDRFTISRDDSKNTLYLQMNSLKTEDTALYYCTWDWDFYYGMNVWGQGTTVTVSSGGGGSGGGGSGGGGSQSVLTQPASVSGSPGQSITISCTGTSSDVGGYNYVSWYQQHPGKAPKLMIYEGSKRPSGVSNRFSGSKSGNTASLTISGLQAEDEADYYCSSYTTRSTRVFGGGTKLTVLG
no binding | GMBC625 (scFv) scFv: EVQLVQSGGGLVKPGGSLRLSCAASGFTFSDAWMNWVRQAPGKGLEWVGRIKSKRSGGTIDYAAPVKDRFTISRDDSKDTMYLQMNSLKTEDTALYYCTWDWDFYYGMNVWGQGTMVTVSSGGGGSGGGGSGGGGSQSVLTQPASVSGSPGQSITISCTGTSSDVGGYNYVSWYQQHPGKAPKLMIYEGSKRPSGVSNRFFGSKSGNTASLTISGLQAEDEADYYCSSYTTRSTRVFGGGTKLTVLG
no binding | GMBC634 (scFv) scFv: QVQLVQSGGGLVKPGGSLRLSCAASGFTFSDAWMNWVRQAPGKGLEWVGRIKSKGSGGTIDYAAPVKDRFTISRDDSKNTLYLQMNSLKTEDTALYYCTWDWDFYYGMNVWGQGTLVTVSSGGGGSGGGGSGGGGSQSVLTQPASVSGSPGQSITISCTGTSSDVGGYNYVSWYQQHPGKAPKLMIYEGSKRPSGVSNRFSGSKSGNTASLTISGLQAEDEADYYCSSYTTRSTRVFGGGTKLTVLG
no binding | GMBC607 (scFv) scFv: EVQLVQSGGGLVKPGGSLRLSCAASGFTFSDAWMNWVRQAPGKGLEWVGRIKSKGSGGTIDYAAPVKDRFTISRDDSKNMLYLEMNSLKTEDTALYYCTWDWDFYYGMNVWGQGTMVTVSSGGGGSGGGGSGGGGSQSVLTQPASVSGSPGQSITISCTGTSSDVGDYNYVSWYQQHPGKAPKLMIYEGSKRPSGVSNRFSGSKSGNTASLTISGLQAEDEADYYCSSYTTRSTRVFGGGTKLTVLG
no binding | GMBC660 (scFv) scFv: EVQLVQSGGGLVKPGGSLRLSCAASGFIFSDAWMNWVRQAPGKGLEWVGRIKSKGSGGTIDYAAPVKDRFTISRDDSKNTLYLQMNSLKTEDTALYYCTWDWDFYYGMNVWGQGTPVTVSSGGGGSGGGGSGGGGSQSVLTQPASVSGSPGQSITISCTGTSSDVGGYNYVSWYQQHPGKAPKLMIYEGSKRPSGVSNRFSGSKSGNTASLTISGLQAEDEADYYCSSYTTRSTRVFGGGTKLTVLG
no binding | GMBC658 (scFv) scFv: EVQLVQSGGGLVKPGGSLRLSCAASGFTFSDAWMNWVRQAPGKGLEWVGRIKSKGSGGTIDYAAPVKDRFTISRDDSKNTLYLQMNSLKTEDTALYYCTWDWDFYYGMNVWGRGTTVTVSSGGGGSGGGGSGGGGSQSVLTQPASVSGSPGQSITISCTGTSSDVGGYNYVSWYQQHPGKAPKLMIYEGSKRPSGVSNRFSGSKSGNTASLTISGLQAEDEADYYCSSYTTRSTRVFGGGTKLTVLG
no binding | GMBC616 (scFv) scFv: EVQLVESGGGLVKPGGSLRLSCAASGFTFSDAWMNWVRQAPGKGLEWVGRIKSKGSGGTTDYAAPVKDRFTISRDDSENTLYLQMNSLKTEDTAVYYCTWDHSYYYDMAVWGRGTLVTVSSGGGGSGGGGSGGGGSQSVLTQPPFVSGSPGQSITISCTGTSSDVGGYNYVSWYQQHPGKAPKLMIYEGSKRPSGVSNRFSGSKSGNTASLTISGLQAEDEADYYCSSYTTRSTRVFGGGTKLTVLG
no binding | GMBC605 (scFv) scFv: QVQLVQSGGGLVKPGGSLRLSCETSGFKFSDAWMNWVRQAPGKGLEWVGRIKSKGSGGTIDYAAPVKDRFTISRDDSKNTLYLQMNSLKTEDTALYYCTWDWDFYYGMNVWGRGTLVTVSSGGGGSGGGGSGGGGSQSVLTQPASVSGSPGQSITISCTGTSSDVGGYNYVSWYQQHPGKAPKLMIYEGSKRPSGVSNRFSGSKSGNTASLTISGLQAEDEADYYCSSYTTRSTRVFGGGTKLTVLG
no binding | GMBC613 (scFv) scFv: KVQLVESGGGLVQPGGSLRLSCAASGFTISSHWMSWVRQAPGKGLEWVASIKQDGREKHFVDSVKGRFSISRDNAKNSLYLQMNSLRTEDTAVYYCARETYGGYYYYFMDVWGKGTLVTVSSGGGGSGGGGSGGGGSSELTQDPAVSVALGQTVRITCQGDSLRSYYASWYQQKPGQAPVLVIYGKNNRPSGIPDRFSGSSSGNTASLTITGAQAEDEADYYCNSRDSSGNHVVFGGGTKLTVLG
no binding | GMBC603 (scFv) scFv: QVQLVQSGGGVVRPGGSLRLSCAASGFTFDDYGMSWVRQAPGKGLEWVSGINWNGGSTGYADSVKGRFTISRDNAKNSLYLQMNSLRAEDTALYYCAKDLNYDFWSGSGMDVWGRGTLVTVSSGGGGSGGGGSGGGGSQSVLTQPASVSGSPGQSITISCTGTSSDVGGYNYVSWYQQHPGKAPKLMIYEGSKRPSGVSNRFSGSKSGNTASLTISGLQAEDEADYYCSSYTTRSTRVFGGGTKLTVLG
